Series [1] deals with EncFtnsH H65A mutant (Rhodospirillum rubrum) (UniProt Q2RVS1). The series can be described thus: native MS; nESI, 100 mM ammonium acetate pH 8.0, about 5 uM protein; apo protein made in minimal medium, no Fe2+ added.
Series [2] has the same target. The experiment in a line: crystal structure; hanging drop, 292 K, 0.14 M calcium acetate, 15% PEG 3350; cryoprotectant with 1 mM FeSO4; three decamers in the asymmetric unit; mutants crystallized in the same manner.
Series [3] concerns the molecule itself. The series can be described thus: SEC; size-exclusion chromatography of the purified full-length EncFtn; column and buffer not told for this protein.
Series [4] concerns the molecule itself. The series can be described thus: SEC; analytical gel filtration of EncFtnsH monomer at 700 uM, compared with 90 uM; no metal added. A general note: Size exclusion chromatography separates by hydrodynamic size, large species first.
Series [5] addresses Q2RVS1. The experiment in a line: SEC; analytical gel filtration, Superdex 200 PC 3.2/30 (Table 3 caption: 10/300 GL), 15 C, GF buffer; 90 uM EncFtnsH monomer or decamer fractions, alone or after 2 h at room temperature with one molar equivalent of metal salt.
Series [6] concerns the molecule itself. The experiment in a line: SEC; preparative Superdex 200 16/60 after nickel affinity; 50 mM Tris-HCl pH 8.0, 150 mM NaCl; protein from E. coli grown in SeMet medium + 1 mM Fe(NH4)2(SO4)2, in MM, or in MM + 1 mM Fe(NH4)2(SO4)2.
Series [7] concerns the molecule itself. The description is as above. The source holds these as a separate data set.

Where a chain is given by its changes, count along the chain named. Names may count otherwise.

Take “EncFtnsH H65A mutant (from UniProt Q2RVS1 1-96) (domain or fragment)”: the figures for the stoichiometry N in series [1] and in series [2] were 2 and 10, respectively.

B1: Rhodospirillum rubrum EncFtn, full-length sequence (140 amino acids), purified alone (natural protein, UniProt Q2RVS1 1-140, looked up)
chain: MAQSSNSTHEPLEVLKEETVNRHRAIVSVMEELEAVDWYDQRVDASTDPELTAILAHNRDEEKEHAAMTLEWLRRNDAKWAEHLRTYLFTEGPITAIEAADTAGEGSGGDAAKGATAQGDGSLGIGSLKGEAALARPPRL
notes: primers are in Supplementary file 2; also called encapsulated ferritin; source: E. coli, recombinant, purified (SEC)
Turning to B1, in series [3], the binding result was “binds”.

B2: EncFtnsH: truncated C-terminal hexahistidine-tagged variant of Rhodospirillum rubrum encapsulated ferritin (EncFtn, Rru_A0973), amino acids 1-96 plus the tag (domain or fragment, UniProt Q2RVS1 1-96, looked up)
chain: MAQSSNSTHEPLEVLKEETVNRHRAIVSVMEELEAVDWYDQRVDASTDPELTAILAHNRDEEKEHAAMTLEWLRRNDAKWAEHLRTYLFTEGPITA
notes: amino acids 1-96 of the 140-residue protein; Monomer predicted mass 13,194.53 Da with the tag; also called wild-type EncFtnsH; WT; source: for crystals anion exchange and SEC; not shown: His6, C-terminal, kept
As for B2, in series [4], the stoichiometry N – broadly, a count of units in the complex or per binding partner – turned out to be 2. Besides, in series [5], the decamer/monomer peak area ratio (decamer fractions, no metal added, day 1) is 11.2; the decamer/monomer peak area ratio (monomer fractions, no metal added, day 1) was 0.1; the decamer/monomer peak area ratio (monomer fractions, no metal added, day 2) is 0.4; the decamer/monomer peak area ratio (monomer fractions, no metal added, day 3) was determined as 0.3. For the same molecule, in series [5], the decamer/monomer peak area ratio (with Ca acetate) is 0.2, the decamer/monomer peak area ratio (with CoCl2) was 1.2, the decamer/monomer peak area ratio (with Fe(NH4)2(SO4)2) amounted to 0.8 and the decamer/monomer peak area ratio (with FeCl3) came out at 0.1. Moreover, in series [5], the decamer/monomer peak area ratio (with FeSO4-HCl) turned out to be 1, the decamer/monomer peak area ratio (with MgSO4) was determined as 0.2, the decamer/monomer peak area ratio (with MnCl2) worked out at 0.1 and the decamer/monomer peak area ratio (with ZnSO4) was determined as 2.3. The “stoichiometry N” value in series [6] was determined as 10. The “decamer/monomer peak area ratio (cells grown in MM + 1 mM Fe(NH4)2(SO4)2)” value in series [7] came out at 4.5.

B3: EncFtnsH E62A mutant (domain or fragment, Rhodospirillum rubrum, UniProt Q2RVS1 1-96, looked up)
chain: B2 chain with E62A
notes: amino acids 1-96, with E62A; Single mutant of EncFtnsH; source: E. coli BL21(DE3) grown in MM or MM supplemented with iron; purified (Superdex 200 SEC); not shown: His6, C-terminal, kept
Take B3: the “stoichiometry N” value in series [6] came out at 10.

B4: EncFtnsH E32A mutant (domain or fragment, Rhodospirillum rubrum, UniProt Q2RVS1 1-96, looked up)
chain: B2 chain with E32A
notes: amino acids 1-96, with E32A; Single mutant of EncFtnsH; source: E. coli BL21(DE3) grown in MM or MM supplemented with iron; purified (Superdex 200 SEC); not shown: His6, C-terminal, kept
For B4, the “stoichiometry N” value in series [6] is 10.
